Changes are numbered by the printed parent chain. Names may count otherwise.
Columns and labels:
[1] = test system: soybean transformed with CyPPO10 A167L+F360M; assay: Herbicide tolerance of soybean; type: in vivo; conditions: T1, 150 μM saflufenacil spray, 5 days
[2] = test system: BT3 (ΔPPO) E. coli with CyPPO10m-6 (E225G, G258S, Q266L, T336I, V356F, F360M, A364D, R406G, W419R; SEQ ID NO: 131); assay: Growth of BT3 with error-prone PCR mutant of CyPPO10; type: cell-based; conditions: up to 200 μM herbicide
[3] = test system: CyPPO13 (Synechococcus sp. JA-3-3Ab PPO, SEQ ID NO: 4) variant F373M, MBP fusion; assay: PPO inhibition assay; type: biochemical; conditions: herbicide 0-5,000 nM, 50 μM substrate
[4] = test system: CyPPO13 (Synechococcus sp. JA-3-3Ab PPO, SEQ ID NO: 4) variant F373I, MBP fusion; assay: PPO inhibition assay; type: biochemical; conditions: herbicide 0-5,000 nM, 50 μM substrate
Procedure: (§1) The enzyme activities of PPO protein and PPO protein variants were examined, and inhibition assay by PPO-inhibiting herbicides was conducted. It was confirmed that the PPO protein has low water-solubility, but in case of being expressed as a fusion protein with MBP (maltose binding protein) (MBP-PPO), the PPO protein is able to be stably expressed as water-soluble form. Therefore, the wild type and variant proteins which were expressed in the form of fusion protein with MBP were used in the present test (refer to FIG. 4).
(§2) At first, a substrate of PPO protein, Protoporphyrinogen IX was synthesized. This process was performed in the space where nitrogen gas is streamed. 6 mg of protoporphyrin IX was dissolved in 20% (v/v) EtOH 20 ml, and stirred under dark condition for 30 minutes. The obtained protoporphyrinogen IX solution was put into a 15 ml screw tube in an amount of 800 and flushed with nitrogen gas for 5 minutes. To this, 1 g of sodium amalgam was added and vigorous shaking was performed for 2 minutes. The lid was open to exhaust hydrogen gas in the tube. Thereafter, the lid was closed and incubated for 3 minutes. The […] was filtered using syringe and cellulose membrane filter. To 600 μl of the obtained […], 2M MOPS [3-(N-morpholino)propanesulfonic acid] was added in an amount of approximately 300 thereby adjusting pH to 8.0. To determine the enzyme activity of PPO protein, a reaction mixture was prepared with the following composition (based on 10 ml): 50 mM Tris-Cl (pH 8.0); 50 mM NaCl; 0.04% (v/v) Tween 20; 40 mM glucose (0.072 g); 5 units glucose oxidase (16.6 mg); and 10 units catalase (1 μl).
(§3) Two hundred microliters (200 μl) of reaction mixture containing a purified PPO protein were placed in 96 well plates, and preincubated for 30 min at room temperature to reduce the oxygen concentration by the reaction of glucose oxidase-catalase. The mineral oil was layered and then the reaction was initiated by adding the substrate, […], to a final concentration of 50 μM. The reaction proceeded at room temperature for 30 min and the fluorescence of protoporphyrin IX was measured using Microplate reader (Sense, Hidex) (excitation: 405 nm; emission: 633 nm). To calculate the PPO enzyme activity, protoporphyrinogen IX solution was kept open in the air to oxidize the solution (overnight). To this, 2.7N HCl was added, and the absorbance at 408 nm was measured. A standard curve was generated using standard protoporphyrin IX, and the PPO activity was measured by calibration of protoporphyrin IX using the standard curve of protoporphyrin IX.
(§4) The final concentration of each herbicide was as follows: […]

[5] = test system: CyPPO13 (Synechococcus sp. JA-3-3Ab PPO, SEQ ID NO: 4) variant F373L, MBP fusion; assay: PPO inhibition assay; type: biochemical; conditions: herbicide 0-5,000 nM, 50 μM substrate
Procedure: as §1, §2, §3, §4

[6] = test system: A. thaliana T3 lines with CyPPO10 wild type or mutants (F360M, F360I, F360L, F360C, A167C), CyPPO13 wild type or mutants (F373M, F373C, F373I, A177C …); assay: Seed germination of A. thaliana transformants on herbicide media; type: in vivo, Arabidopsis thaliana; conditions: 25 μM glufosinate, 7 days after sowing
[7] = test system: CyPPO13; assay: PPO enzyme activity and IC50 by herbicides, CyPPO13 wild type and variants (MBP-PPO fusion); type: biochemical, Synechococcus sp. JA-3-3Ab; conditions: PPO enzyme activity of CyPPO13 protein, wild type = 100
Procedure, shortened: (§5)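 Activity was read as protoporphyrin IX fluorescence (405/633 nm), calibrated with a protoporphyrin IX standard curve, after 30 min at room temperature with 50 μM substrate under mineral oil. The buffer was 50 mM Tris-Cl pH 8.0 with glucose oxidase/catalase and a 30 min preincubation. Enzymes were purified MBP-PPO fusions of CyPPO10 or CyPPO13, wild type and variants, expressed in E. coli.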

[8] = test system: A. thaliana; assay: Seed germination of A. thaliana transformants on ½ MS media containing herbicides; type: in vivo, Arabidopsis thaliana; conditions: T3 lines; 25 μM glufosinate, 25 μM glufosinate+70 nM tiafenacil, or 25 μM glufosinate+30 nM tiafenacil+40 nM saflufenacil; 7 days after sowing
From the text: T3 generation seeds of each transformant were sown in ½ MS media containing herbicides. Col-0 ecotype (wild type Arabidopsis) seeds were used as a control. The kinds of herbicides and concentration are as follows:
In FIGS. 31a to 31c, 10-3 refers to CyPPO10 wild type, 10FM-4-7 to the CyPPO10 F360M transgenic line, 10FL-1-9 to the CyPPO10 F360L transgenic line, 10FC-3-5 to the CyPPO10 F360C transgenic line, 10AC-5-4 to the CyPPO10 A167C transgenic line, 13-1 to CyPPO13 wild type, 13FM-3-1 to the CyPPO13 F373M transgenic line, 13FC-1-1 to the CyPPO13 F373C transgenic line, 13FI-2-1 to the CyPPO13 F373I transgenic line, 13AC-1-3 to the CyPPO13 A177C transgenic line, CyPPO13_ALFL to the CyPPO13 A177L+F373L transgenic line, and CyPPO13_ALFI to the CyPPO13 A177L+F373I transgenic line, respectively.

[9] = test system: PPO-deficient BT3 E. coli (ΔPPO); assay: Tiafenacil tolerance of BT3 E. coli transformed with CyPPO10, CyPPO13 or AtPPO1 genes (pACBB vector); type: cell-based; conditions: tiafenacil 0 μM; PPO function complementation
Procedure: After transforming PPO-deficient BT3 E. coli (ΔPPO) with CyPPO10 or CyPPO13, the transformed BT3 (ΔPPO) was cultured on LB agar plates containing PPO-inhibiting herbicide to examine the growth level of the transformed BT3 (ΔPPO). BT3 (ΔPPO) strain was obtained from Hokkaido University (Japan). The BT3 (ΔPPO) strain is deficient in hemG-type PPO and has kanamycin tolerance (refer to “Watanabe et al., Dual targeting of spinach protoporphyrinogen oxidase II to mitochondria and chloroplasts by alternative use of two in-frame […], JBC 2001 276(23):20474-20481; Che et al., Molecular Characterization and Subcellular Localization of Protoporphyrinogen Oxidase in Spinach Chloroplasts, Plant Physiol. 2000 September; 124(1):59-70”).
The cloned plasmid was added to 100 μl of BT3 competent cell (Hokkaido University; Japan) respectively, thereby transforming by a heat shock method. The transformed E. coli with each PPO gene was cultured in LB (Luria-Bertani) agar media comprising Chloramphenicol (Duchefa).
For seed culture of E. coli transformed with respective genes, each single colony of E. coli transformant as provided above was cultured in 3 ml of LB broth containing chloramphenicol overnight (220 rpm, 37° C.), and 50 to 100 μl were subcultured in a new 3 ml of LB broth, and they were cultured until absorbance (OD600) became 0.5 to 1, and they were diluted with LB broth to absorbance (OD600) of 0.5. The diluted solution was serially diluted again 5 times by a factor of one tenth with LB broth. […] The LB Agar media were incubated at 37° C., under light condition, and level of inhibiting growth was observed after 16 to 20 hours of incubation.
Plant physiol. 2003 133:736-747).

[10] = test system: CyPPO10; assay: PPO enzyme activity and IC50 by herbicides, CyPPO10 wild type and variants (MBP-PPO fusion); type: biochemical, Thermosynechococcus elongatus BP-1; conditions: PPO enzyme activity of CyPPO10 protein, wild type = 100
Procedure, shortened: as §5

[11] = test system: A. thaliana; assay: Herbicide spray on A. thaliana transformants, injury level judged at the 7th day; type: in vivo, Arabidopsis thaliana; conditions: A. thaliana transformants T2, tiafenacil 25 μM spray

With CC(C)N(C)S(=O)(=O)NC(=O)c1cc(-n2c(=O)cc(C(F)(F)F)n(C)c2=O)c(F)cc1Cl [Saflufenacil] the damage level [1] was “no damage”, the cell viability [2] was “cell viability similar to that of cells with wild type CyPPO10” and the IC50 [3] was 481 nM. The IC50 [4] was 1480 nM and the IC50 [5] was 1470 nM.

With CP(=O)(O)CCC(N)C(=O)O (stereo not shown) [glufosinate] the seed germination [6] was “germinated”.

B1: CyPPO13 WT: PPO derived from Synechococcus sp. JA-3-3Ab strain, amino acid sequence SEQ ID NO: 4 (protein)
chain: MNPATPEPLNAEVVVIGAGISGLTLAWRLQQGLSARGGSPQAVLLAEASSRVGGCISTQSKDGYRWEEGPNSFTPTPALLNLIAEVGLTDQLVLADAKLPRYIYWEGALLPVPLSPAAALGSRLLSVGGKLRALQGLLGFVPPPPGHEETVRQFFRRQLGSEVAERLVEPFTSGVYAGDPDQLSAVAAFPRVAGLEERYGSLFAGALQALRQRPQPSPAAIQPPPKRGQLGNLRQGLQQLPEALAQKLGDSLRLGWRALQLKRAGELYWVGFETPEGSRWVAARQVVLALPAYEAAALLQELNPPASQLLAEILYPPVAVVALAYPQEALPQPLRGFGHLIPRSQGLRTLGTIWASCLFPERAPQGYHSFLSFLGGATDAALARRRGIPPIPALSPEERAQIAHAELSQVLLTRRAEPVYLGERLWPRAIPQYTLGHRQRIAQVQAHLASQTPGIWVCANYLDGVALGDCVRRAEALAQQLLSQV
modifications: Synthetic CyPPO13
With B1 the “Activity (%)” value [7] was 100%, the “Seed germination in media containing herbicides” value [8] was “germinated” and the “Growth of BT3 transformant on medium containing no herbicide” value [9] was “recovered”.

B2: CyPPO10 WT: PPO protein derived from Thermosynechococcus elongatus BP-1, amino acid sequence SEQ ID NO: 2 (protein)
chain: MIEVDVAIVGGGLSGLSVAWRLQRSAPHYSGVLLEASDRLGGNITTQAAEGFVWELGPNSFAPTPALLQLIAEVGLHSELIRGDRHLPRYIYWRGELYPLEPTRPLALATSNLLSPWGKVRAALGALGFVPPYLGSGDESVDSFFRRHLGQEVAERLVAPFVSGVYAGDPQQLSAAAAFRRIAQLEKLGGSLIAGALRLRRQQPPQPKPPAQVQMRPGELGSFREGLAALPRAIAQQLKAPLHLQTPVEAITPEPKGGYLLRSGEQTWHARSVVLATPAYQTAELVAPFQPAIARALATIPYPTVACVVLAYPAGLGRSVRPGFGVLVPRGQGIRTLGTIWSSCLFPQRTPAGWQVFTSFIGGATDPDLASLREEAIVEQVQQDLTRLLDLPAAKARLLGMKVWRRAIPQYIVGYPQQWQQVTHALTQTPGLFLCSNYAEGVALGDRVEHGNRTAAAVAAYLAGGQS
modifications: Synthetic CyPPO10
In the case of B2, the “Activity (%)” value [10] is reported as 100%, the “Seed germination in media containing herbicides” value [8] is reported as “germinated” and the “Growth of BT3 transformant on medium containing no herbicide” value [9] is reported as “recovered”.

B3: CyPPO10 A167L + F360M: CyPPO10 (SEQ ID NO: 2) PPO variant (protein)
chain: B2 chain with A167L, F360M
modifications: Synthetic CyPPO10
B3 was tested, and the “Activity (%)” value [10] was 80% and the Average injury index [11] was 2 (Over 20% and less than 30% of the plant was scorched).

B4: CyPPO10 A167C + F360I: CyPPO10 (SEQ ID NO: 2) PPO variant (protein)
chain: B2 chain with A167C, F360I
modifications: Synthetic CyPPO10
For B4, the “Activity (%)” value [10] was 48% and the Average injury index [11] was 2 (Over 20% and less than 30% of the plant was scorched).
